Assay results from patent WO2009150539A2 (dated 2009).
Substitutions are numbered along the chain they refer to. Values joined by “and” are separate entries in the source; they are usually repeats but may differ in a detail not shown here. Equal entries are not always repeated.

Experiments:
[1] = molecular target: AahI' toxin of Androctonus australis hector (Androctonus australis hector) (UniProt P01479); test: cell-based or functional assay
[2] = molecular target: T1, AahII toxin of Androctonus australis hector (Androctonus australis hector, UniProt P01484 20-83); test: SPR (BIAcore), AahII immobilised on CM5 chip, Nb in mobile phase
T1 construct: mature; also called Aahll
T1 sequence: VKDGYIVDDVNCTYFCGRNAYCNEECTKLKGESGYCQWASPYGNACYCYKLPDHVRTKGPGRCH

[3] = molecular target: T1, AahII toxin of Androctonus australis …; test: cell-based or functional assay

Chain of AahI' toxin of Androctonus australis hector (Androctonus australis hector) (P01479 20-82): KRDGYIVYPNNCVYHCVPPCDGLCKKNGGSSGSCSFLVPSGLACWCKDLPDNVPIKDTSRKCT

B1: AahI'F12 (VHH)
VHH: QVQLQESGGGSVQAGGSLRLSCVGPGISYVYNRVGWFRQAPGKESEVVAAFYTSNTSALYYAAQVKGRFTISQGNAKNTVYLQMNNLKPEDSGKYYCATANGGLLSDARGYRHYGQGTQVTVSS
- surviving mice; i.c.v.; 4 LD50 AahI'; ratio 1:2 (survivors of 4 mice) [1]: 4
- surviving mice; i.c.v.; 20 LD50 AahI'; ratio 1:2 (survivors of 4 mice) [1]: 4
- surviving mice; i.c.v.; 23 LD50 AahI'; ratio 1:2 (survivors of 4 mice) [1]: 4
- surviving mice; i.c.v.; 26 LD50 AahI'; ratio 1:2 (survivors of 4 mice) [1]: 4
- surviving mice; i.c.v.; 29 LD50 AahI'; ratio 1:2 (survivors of 4 mice) [1]: 4
- surviving mice; i.c.v.; 33 LD50 AahI'; ratio 1:2 (survivors of 4 mice) [1]: 4
- surviving mice; i.c.v.; 37 LD50 AahI'; ratio 1:2 (survivors of 4 mice) [1]: 4
- surviving mice; i.c.v.; 47 LD50 AahI'; ratio 1:2 (survivors of 4 mice) [1]: 4
- surviving mice; i.c.v.; 60 LD50 AahI'; ratio 1:2 (survivors of 4 mice) [1]: 4
- surviving mice; i.c.v.; 70 LD50 AahI'; ratio 1:2 (survivors of 4 mice) [1]: 4
- surviving mice; i.c.v.; 75 LD50 AahI'; ratio 1:2 (survivors of 4 mice) [1]: 4
- surviving mice; i.c.v.; 80 LD50 AahI'; ratio 1:2 (survivors of 4 mice) [1]: 4
- surviving mice; i.c.v.; 90 LD50 AahI'; ratio 1:2 (survivors of 4 mice) [1]: 4
- surviving mice; i.c.v.; 95 LD50 AahI'; ratio 1:1 (survivors of 4 mice) [1]: 2
- surviving mice; i.c.v.; 95 LD50 AahI'; ratio 1:2 (survivors of 4 mice) [1]: 4
- surviving mice; i.c.v.; 100 LD50 AahI'; ratio 1:1 (survivors of 4 mice) [1]: 2
- surviving mice; i.c.v.; 100 LD50 AahI'; ratio 1:2 (survivors of 4 mice) [1]: 4

B2: AahI'A2 (VHH)
VHH: QVQLQESGGGSVQAGGSLRLSCAASGFPASSYCMAWFRQAPGKEREGLAAIYNGGRRYYPDSLKGRFTIEDKAENTIYLEMNSLKPEDTATYYCAARSNQCWYATLQQSWYPYWGQGTQVTVSS
- surviving mice; i.c.v.; 4 LD50 AahI'; ratio 1:2 (survivors of 4 mice) [1]: 0

B3: AahI'A3 (VHH)
VHH: QVQLQESGGGSVQAGGSLRLSCAASGFTFRSPYCMGWFRQAPGKEREAVAAIKTYYAGTVYADSMKGRFTITQDIAKNTVYLQMNSLKPEDTATYYCAATGGPYNGRCPLTSQPFPNWGQGTQVTVSS
- surviving mice; i.c.v.; 4 LD50 AahI'; ratio 1:2 (survivors of 4 mice) [1]: 4

B4: AahI'C14 (VHH)
VHH: QVQLQESGGGSVQAEGSLRLSCTVSGLTSSSNYVGWFRQAPGKEREGVATIGPYTRNTRYADSVNGRFTISLDNAKSTLYLQMNGLKPEDTAIYYCAAGKTTWIRALRSDDYKYWGQGTQVTVSS
- surviving mice; i.c.v.; 4 LD50 AahI'; ratio 1:2 (survivors of 4 mice) [1]: 0

B5: AahI'C13 (VHH)
VHH: QVQLQESGGGSVQPGGSLRLSCAASGYIYSRYCMGWFRQAPGKEREGVAVISGYGTTHFADSAKGRFTISQDKAKNMVYLQMNSLRPEDTAIYYCAVRQWDCYSANWPQTHTYDYWGQGTQVTVSS
- surviving mice; i.c.v.; 4 LD50 AahI'; ratio 1:2 (survivors of 4 mice) [1]: 2

B6: AahI'A19 (VHH)
VHH: QVQLQESGGGSVQAGGSLRLSCVASEYSECIGWFRQAPGKEREGVAAIEKVLGQRWRADSIHDRITISQDKAKNTVYLQMTSLKIDDTAMYYCAAKGRGCMSQPTTGYLSWGQGTQVTVSS
- surviving mice; i.c.v.; 4 LD50 AahI'; ratio 1:2 (survivors of 4 mice) [1]: 4

B7: AahI'B23 (VHH)
VHH: QVQLQESGGGSVQAGGSLRLSCAASGYQQTGYCMGWFRQAPGKEREGVAVIKTFYAGTVYADSVKGRFTISQDIAKNTVYLQMNSLQPEDTAMYYCAITGGPWNGRCPLTSQAFRYWGQGTQVTVSS
- surviving mice; i.c.v.; 4 LD50 AahI'; ratio 1:2 (survivors of 4 mice) [1]: 0

B8: NbAahII39 (VHH)
VHH: QVQLVESGGGSVQAGGSLRLSCAASGYTCTKFNMGWYRQAPGKERKMVATIRRDGTTYYADSVKGRFTISQDNAKNTVYLQMTSLKPEDSAMYYCSFRCVTPSLPYWGQGTQVTVSS
notes: also called cluster G
- Kd [2]: 0.16 nM
- koff [2]: 0.00105 s⁻¹
- kon [2]: 6.41e+06 M⁻¹ s⁻¹

B9: NbAahII18 (VHH)
VHH: QVQLQESGGGSVQAGGSLRLSCAASGDSYSNYYMAWFRQAPGKEREGVAHINRSGRITLYADSVKGRFTMSRDNAKNTVYLQMNSLRPEDTAIYYCAAGVRTHMPPLASYGFDYWGQGTQVTVSS
notes: also called NbAahlllδ; NbAahll l δ
- NC = (LD50 with Nb - LD50 without Nb)/Nb; i.c.v.; AahII:Nb 1:4 [3]: 27000 LD50/mg and 400 LD50/nmol
- Survivors/Injected mice; i.c.v.; AahII:Nb 1:2; 3 LD50/mouse; 36 ng Nb/mouse [3]: 1 survivors of 4 mice
- Survivors/Injected mice; i.c.v.; AahII:Nb 1:2; 4 LD50/mouse; 48 ng Nb/mouse [3]: 0 survivors of 4 mice
- Survivors/Injected mice; i.c.v.; AahII:Nb 1:4; 2 LD50/mouse; 48 ng Nb/mouse [3]: 2 survivors of 4 mice
- Survivors/Injected mice; i.c.v.; AahII:Nb 1:4; 3 LD50/mouse; 72 ng Nb/mouse [3]: 2 survivors of 4 mice
- Kd [2]: 0.18 nM
- koff [2]: 0.0016 s⁻¹
- kon [2]: 8.95e+06 M⁻¹ s⁻¹

B10: NbAahII08 (VHH)
VHH: B9 VHH with Q1D, Q5V, R87K
notes: also called cluster F
- Kd [2]: 0.12 nM
- koff [2]: 0.00138 s⁻¹
- kon [2]: 1.19e+07 M⁻¹ s⁻¹

B11: AahI'D19 (VHH)
VHH: QVQLQESGGGLVQPGGSLRLSCAVTDFTFSFYWMYWVRQAPGKNLEWISSLHSDGYTYYPDSVKGRFTISRDTAKNMLYLQMNSLKPEDTAVYYCATAIRNMWGQAAPGSAGYWGQGTQVTVSS
- surviving mice; i.c.v.; 4 LD50 AahI'; ratio 1:2 (survivors of 4 mice) [1]: 4

B12: AahI'B1 (VHH)
VHH: QVQLQESGGGSVQAGGSLRLSCTASKYTSAVGWFRQAPGKEREGVASIYGYTGSGSSGSTYYADSGKGRFTISRDSAKNMVYLQMNSLKPEDTAMYYCTAADRPRFRLLVEDDVVYWGQGTQVTVSS
- surviving mice; i.c.v.; 4 LD50 AahI'; ratio 1:2 (survivors of 4 mice) [1]: 0

B13: NbAahII41 (VHH)
VHH: QVQLVESGGGSVQAGGSLRLSCAASGFDFSIYVMSWVRQAPGKGLEWISGIMPSGQTTYADAVKGRFTISRDNAKNTLYLQLNSLKTEDTAIYYCAKGVYTKYVGGARGQGTQVTVSS
notes: also called cluster I
- Kd [2]: 2.31 nM
- koff [2]: 0.01 s⁻¹
- kon [2]: 4.33e+06 M⁻¹ s⁻¹

B14: AahI'D10 (VHH)
VHH: QVQLQESGGGSVQAGGSLRLSCAASVDTFSTTCMGWFRQTPGKEREGVAVIKTFYAGTVYADSVKGRFTISQDIAKNTVYLQMNSLNPEDTAMYYCAATGGPYNGRCPLASQPFRYWTQGTQVTVSS
- surviving mice; i.c.v.; 4 LD50 AahI'; ratio 1:2 (survivors of 4 mice) [1]: 3

B15: AahI'D11 (VHH)
VHH: QVQLQESGGGSVEAGGSLRLSCATSGFTFSRYAMYWFRQAPGMECEWVSTIHTNGDTYYANSLKGRFTGSRDNAKNTAYLQMNSLKPEDTAVYYCHAPLNDGSTPTHICSRAGSYGYWGQGTQVTVSS
- surviving mice; i.c.v.; 4 LD50 AahI'; ratio 1:2 (survivors of 4 mice) [1]: 2

B16: NbAahII36 (VHH)
VHH: QVQLVESGGGSVQAGGSLRLSCAASGYTFSNYRMGWFRQAPGKECELVSTILTDGSTNYADSVKGRFTISRDNAKNTVYLLMNNLKAEDTAVYYCAAGNSRKGYLRRCGGTDFGYWGQGTQVTVSS
notes: also called cluster C
- Survivors/Injected mice; i.c.v.; AahII:Nb 1:2; 2 LD50/mouse; 24 ng Nb/mouse [3]: 1 survivors of 4 mice
- Survivors/Injected mice; i.c.v.; AahII:Nb 1:2; 3 LD50/mouse; 36 ng Nb/mouse [3]: 0 survivors of 4 mice
- Kd [2]: 0.67 nM
- koff [2]: 0.00137 s⁻¹
- kon [2]: 2.04e+06 M⁻¹ s⁻¹

B17: AahI'B2 (VHH)
VHH: QVQLQESGGGSVQAGGSLRLSCVASEYSYRRNCMAWYRQAPGKEREGVARISTAYDITYYADSANGRFTISQDKAKKTVYLQMNSLKPEDSAMYYCSVSTGSDCYSMSLPRMDYWGKGTQVTVSS
- surviving mice; i.c.v.; 4 LD50 AahI'; ratio 1:2 (survivors of 4 mice) [1]: 4

B18: AahI'A17 (VHH)
VHH: QVQLQESGGGSVQDGGSLTLSCAASSSYVFNNLNMGWFRQAPGKECELVSTLFVNGITNYADSVKGRFTVSRDNAKNTVFLHMTNLSTEDTAVYYCAAPDVCSATRCGPACRGQGTQVTVSS
- surviving mice; i.c.v.; 4 LD50 AahI'; ratio 1:2 (survivors of 4 mice) [1]: 4
